Earlier results on one substance are cited in article PMC3471383.

A word on the Kd: it is the concentration at which binding is half-saturated.

This data set has as its target FcγRI (Homo sapiens) (UniProt P12314).
Sequence of UniProt P12314 (P12314 16-292): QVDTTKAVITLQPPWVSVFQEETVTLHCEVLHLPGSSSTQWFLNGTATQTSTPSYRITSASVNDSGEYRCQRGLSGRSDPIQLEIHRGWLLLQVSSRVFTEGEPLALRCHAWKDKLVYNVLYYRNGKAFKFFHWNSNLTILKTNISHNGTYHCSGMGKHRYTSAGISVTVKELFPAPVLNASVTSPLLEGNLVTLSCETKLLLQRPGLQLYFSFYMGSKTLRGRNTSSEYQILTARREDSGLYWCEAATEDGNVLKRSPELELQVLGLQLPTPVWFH

As for SAP (from UniProt P02743), the Kd is 500 nM.
